This test concerns the target GLS1 (endogenous; both KGA and GAC, not told apart) (UniProt D3Z7P3). The experiment in a line: IP of endogenous GLS1, PDZD8 blot. Conditions: reference: wild-type PDZD8, glucose-starved cells; sites T527.

For the substance “PDZD8 (from UniProt Q8NEN9) PDZD8-T527A, glucose-starved cells”, the “binding against the reference” value was “weaker”.

These data come from publication doi:10.1101/2023.07.20.548338.
